Molecular target: nicotinic acetylcholine receptors containing subunits α7, α9 and α10 of monocytic U937 cells (human (endogenous in U937)) (UniProt P36544)

B1: purified human endogenous C-reactive protein (natural protein)
chain: QTDMSRKAFVFPKESDTSYVSLKAPLTKPLKAFTVCLHFYTELSSTRGYSIFSYATKRQDNEILIFWSKDIGYSFTVGGSEILFEVPEVTVAPVHICTSWESASGIVEFWVDGKPRVRKSLKKGYTVGAEASIILGQEQDSFGGNFEGSQSLVGDIGNVNMWDFVLSPDEINTIYLGGPFSPNVLNWRALKYEVQGEVFTKPQLWP
Question: How did the IC50 of eCRP for inhibition of BzATP-induced (100 µM) IL-1β release from LPS-primed U937 cells (the paper says this corresponds to about 40 nM pentameric CRP) turn out when B1 was run?
Answer: 4.9 µg/mL
